# US11278600B2, “Human alpha-galactosidase variants” (Codexis, Inc., priority 2014, dated 2022)
# Changes are numbered by the printed parent chain.
# B1: 57 (protein)
# chain: LDNGLARTPTMGWLHWERFMCNLDCQEEPDSCISEKLFMEMAELMVSEGWKDAGYEYLCIDDCWMAPQRDSEGRLQADPQRFPHGIRQLANYVHSKGLKLGIYADVGNKTCAGFPGSFGYYDIDAQTFADWGVDLLKFDGCYCDSLENLADGYKHMSLALNRTGRSIVYSCEWPLYMWPFQKPNYTEIRQYCNHWRNFADIDDSWKSIKSILDWTSFNQERIVDVAGPGGWNDPDMLVIGNFGLSWNQQVTQMALWAIMAAPLFMSNDLRHISPQAKALLQDKDVIAINQDPLGKQGYQLRQGDNFEVWERPLSGLAWAVAMINRQEIGGPRSYTIAVASLGKGVACNPACFITQLLPVKRKLGKYEWTSRLRSHINPTGTVLLQLENTMQMSKDLLL
# modifications: Synthetic Polypeptide sequence of Variant No. 57 of mature Human GLA
# B2: 59 (protein)
# chain: B1 chain with K365R
# modifications: Synthetic Polypeptide sequence of Variant No. 59 of mature Human GLA
# B3: 62 (protein)
# chain: B1 chain with G303Q, K365F, R373V
# modifications: Synthetic Polypeptide sequence of Variant No. 62 of mature Human GLA
# B4: 60 (protein)
# chain: B1 chain with K365T
# modifications: Synthetic Polypeptide sequence of Variant No. 60 of mature Human GLA
# B5: 61 (protein)
# chain: B1 chain with K365V
# modifications: Synthetic Polypeptide sequence of Variant No. 61 of mature Human GLA
# B6: 58 (protein)
# chain: B1 chain with K365L
# modifications: Synthetic Polypeptide sequence of Variant No. 58 of mature Human GLA
# Test: HTP-analysis of yeast culture supernatants, no challenge (MUGal hydrolysis)
# Format: biochemical
# Details: activity of the variant/activity of WT GLA (SEQ ID NO: 5), yeast supernatant
# Summary of the method: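 GLA variants expressed in yeast INVSc1, secreted into SD-Ura broth over 66-84 h at 30° C; clarified supernatants tested without challenge. Supernatant mixed with McIlvaine buffer pH 4.8 and 2 mM MUGal (citrate/KCl, pH 4.6), 37° C for 30-180 min, carbonate-quenched, fluorescence Ex 355/Em 448 nm.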
row,Molecule,Relative Activity of GLA Variants After No Challenge (NC)
1,B1,++ (++ = >1.5 to 2.5 relative activity over WT GLA (SEQ ID NO: 5))
2,B2,+ (+ = 0.5 to 1.5 relative activity over WT GLA (SEQ ID NO: 5))
3,B3,++ (++ = >1.5 to 2.5 relative activity over WT GLA (SEQ ID NO: 5))
4,B4,+ (+ = 0.5 to 1.5 relative activity over WT GLA (SEQ ID NO: 5))
5,B5,++ (++ = >1.5 to 2.5 relative activity over WT GLA (SEQ ID NO: 5))
6,B6,++ (++ = >1.5 to 2.5 relative activity over WT GLA (SEQ ID NO: 5))

# Test: HTP-analysis of supernatants pretreated with base (MUGal hydrolysis)
# Format: biochemical
# Details: challenge at pH 7.1; activity of the variant/activity of WT GLA (SEQ ID NO: 5); yeast supernatant
# Summary of the method: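 Supernatants from INVSc1 yeast expressing GLA variants (SD-Ura, 66-84 h, 30° C) were mixed with McIlvaine buffer pH 7.0-8.2 or 200 mM sodium bicarbonate pH 9.1-9.7 and held 1-18 h at 37° C. Residual activity was then measured on MUGal at pH 4.8/4.3, 37° C, 30-180 min, by fluorescence (Ex 355/Em 448 nm).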
row,Molecule,Relative Activity of GLA Variants After Challenge at pH 7.1
1,B1,++ (++ = >1.5 to 2.5 relative activity over WT GLA (SEQ ID NO: 5))
2,B2,+ (+ = 0.5 to 1.5 relative activity over WT GLA (SEQ ID NO: 5))
3,B3,++ (++ = >1.5 to 2.5 relative activity over WT GLA (SEQ ID NO: 5))
4,B4,+ (+ = 0.5 to 1.5 relative activity over WT GLA (SEQ ID NO: 5))
5,B5,++ (++ = >1.5 to 2.5 relative activity over WT GLA (SEQ ID NO: 5))
6,B6,++ (++ = >1.5 to 2.5 relative activity over WT GLA (SEQ ID NO: 5))

# Test: HTP-analysis of supernatants pretreated with acid (MUGal hydrolysis)
# Format: biochemical
# Details: challenge at pH 4.2; activity of the variant/activity of WT GLA (SEQ ID NO: 5); yeast supernatant
# Summary of the method: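 Fluorescence of MUGal hydrolysis (Ex. 355 nm, Em. 448 nm) is read after sodium carbonate quench. The enzyme source is INVSc1 yeast culture supernatant, first exposed to pH 3.3-4.3 McIlvaine buffer at 37° C. for 1-3 h, then reacted at pH 4.8 for 30-180 minutes.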
row,Molecule,Relative Activity of GLA Variants After Challenge at pH 4.2
1,B1,++ (++ = >1.5 to 2.5 relative activity over WT GLA (SEQ ID NO: 5))
2,B2,+ (+ = 0.5 to 1.5 relative activity over WT GLA (SEQ ID NO: 5))
3,B3,+ (+ = 0.5 to 1.5 relative activity over WT GLA (SEQ ID NO: 5))
4,B4,+ (+ = 0.5 to 1.5 relative activity over WT GLA (SEQ ID NO: 5))
5,B5,++ (++ = >1.5 to 2.5 relative activity over WT GLA (SEQ ID NO: 5))
6,B6,++ (++ = >1.5 to 2.5 relative activity over WT GLA (SEQ ID NO: 5))
